Data as given in patent US20260240958A1, “REPRESSOR FUSION PROTEIN SYSTEMS” (Scribe Therapeutics Inc., priority 2023, published 2026).

Legend:
PCSK9 locus [1] = test: Editing (indel rate by NGS) at the PCSK9 locus in HepG2 cells lipofected with CasX 491 mRNA and gRNA; type: cell-based, human; conditions: CasX 491 mRNA, v1 gRNAs spacers 6.7 and 6.8, 28 hours
Method: (§1) Editing at the PCSK9 locus and consequential effects on secreted PCSK9 levels were assessed for conditions using CasX 491 mRNA co-delivered with a PCSK9-targeting gRNA with scaffold variant 174 compared to conditions where a PCSK9-targeting gRNA with scaffold variant 316 was used. 100 ng of in vitro transcribed mRNA coding for CasX 491 with a P2A and mScarlet fluorescent protein was transfected into HepG2 cells with version 1 (v1) of gRNAs 174-6.7, 174-6.8, 316-6.7, and 316-6.8 (see Table 45) using lipofectamine. After a media change, the following were harvested at 28 hours post-transfection: 1) transfected cells were harvested for editing assessment at the PCSK9 locus by NGS (next generation sequencing); and 2) media supernatant was harvested to measure secreted PCSK9 protein levels by ELISA. For editing analysis by NGS, amplicons were amplified from 200 ng of extracted gDNA with a set of primers targeting the PCSK9 locus and processed as described earlier in Example 1. Secreted PCSK9 levels in the media supernatant were also analyzed using a fluorescence resonance energy transfer-based immunoassay from CISBio following the manufacturer's instructions. […]
(§2) V1 through v6 variants of chemically-modified PCSK9-targeting gRNAs (Table 45) were assessed for their effects on editing potency and consequential effects on secreted PCSK9 levels in vitro. […]

human B2M locus = test: Indel rate by NGS at the human B2M locus in HepG2 cells treated with LNPs (CasX 491 mRNA and gRNA); type: cell-based; conditions: CasX 491 mRNA
Method: (§3) ~50,000 HepG2 cells, cultured in DMEM/F-12 media containing 10% FBS and 1% PenStrep, were seeded per well in a 96-well plate. The next day, seeded cells were treated with varying concentrations of LNPs, which were prepared in six 2-fold serial dilutions starting at 250 ng. These LNPs were formulated to encapsulate CasX 491 mRNA and a B2M-targeting gRNA incorporating either scaffold variant 174 or 316 with spacer 7.9 (v1; see Table 45). Media was changed 24 hours after LNP treatment, and cells were cultured for six additional days prior to harvesting for gDNA extraction for editing assessment at the B2M locus by NGS and B2M protein expression analysis via HLA immunostaining, followed by flow cytometry using the Attune NxT flow cytometer. Briefly, for editing assessment, amplicons were amplified from 200 ng of extracted gDNA with primers targeting the human B2M locus and processed as described in Example 1.

B2M locus [2] = test: B2M knockout (loss of HLA surface presentation, flow cytometry) in HepG2 cells with CasX 491 mRNA and B2M-targeting gRNA; type: cell-based, human; conditions: LNPs, CasX 491 mRNA, spacer 7.9 v1, each dose, compared with scaffold 174
Method: To compare the editing potency of version 0 (v0) and version 1 (v1) of B2M-targeting gRNAs, ~6E4 HepG2 hepatocytes were seeded per well of a 96-well plate. 24 hours later, seeded cells were co-transfected using lipofectamine with 100 ng of in vitro transcribed mRNA coding for CasX 491 and different doses (1, 5, or 50 ng) of either v0 or v1 of the B2M-targeting gRNA containing scaffold variant 174 and spacer 7.37 (see Table 45).
as §3

6.7/6.8 target dsDNA [3] = test: In vitro cleavage rate (kcleave) of CasX 491 RNPs with gRNA variants on labeled dsDNA target; type: biochemical; conditions: CasX 491 RNP, v1 gRNA, compared with scaffold 174
Method: (§4) Double-stranded DNA (dsDNA) targets were formed by mixing the oligos in a 1:1 ratio in 1× cleavage buffer (20 mM Tris HCl pH 7.5, 150 mM NaCl, 1 mM TCEP, […], 10 mM MgCl2), following by heating to 95° C. for 10 minutes, and then allowing the solution to cool to room temperature. CasX ribonucleoproteins (RNPs) were reconstituted with CasX 491 and the indicated gRNAs at a final concentration of 1 μM with 1.2-fold excess of the indicated gRNA in 1× cleavage buffer. RNPs were allowed to form at 37° C. for 10 minutes.
The effects of various structural and chemical modifications to the gRNA scaffold on the cleavage rate of CasX 491 RNPs were determined. Cleavage reactions were prepared with final RNP concentrations of 200 nM and final target concentrations of 10 nM, and reactions were carried out at 16° C. and initiated by the addition of the labeled target DNA substrate (Table 46). Aliquots of reactions were taken at 0.25, 0.5, 1, 2, 5, and 10 minutes and quenched by adding an equal volume of 95% formamide with 20 mM EDTA. Samples were denatured at 95° C. for 10 minutes and resolved on a 10% urea-PAGE gel. Gels were imaged on a Typhoon™ laser-scanner platform and quantified using ImageQuant™ TL 8.2 image analysis software (Cytiva™). The apparent first-order rate constant of non-target strand cleavage (kcieave-) was determined for each CasX:gRNA combination.

6.7/6.8 target dsDNA [4] = test: Competent (active) fraction of CasX 491 RNPs formed by each gRNA, equimolar cleavage assay; type: biochemical; conditions: CasX 491 RNP, v1 gRNA, spacer 6.7 or 6.8
Method: as §4
To determine the competent fraction formed by each gRNA, cleavage reactions were prepared with final RNP concentrations of 100 nM and final target concentrations of 100 nM. Reactions were carried out at 37° C. and initiated by the addition of the labeled target substrate (Table 46). Aliquots were taken at 0.5, 1, 2, 5, 10, and 30 minutes and quenched by adding an equal volume of 95% formamide with 25 mM EDTA. Samples were denatured by heating at 95° C. for 10 minutes and resolved on a 10% urea-PAGE gel. Gels were imaged and quantified as above. […] The plateau of each fit was determined and reported as the active fraction for each RNP in Table 49.

PCSK9 locus [5] = test: Secreted PCSK9 levels in media of HepG2 cells lipofected with CasX 491 mRNA and gRNA; type: cell-based, human; conditions: CasX 491 mRNA, v1 gRNAs spacers 6.7 and 6.8, compared with scaffold 174
Method: as §1, §2

B2M locus [6] = test: B2M repression by HLA immunostaining and flow cytometry in HEK293T cells transfected with LTRP:gRNA plasmids

B1: scaffold 316: chimeric gRNA scaffold: scaffold 235 with extended stem loop of scaffold 174; SEQ ID NO 1746 (nucleic acid)
guide: ACUGGCGCUUCUAUCUGAUUACUCUGAGCGCCAUCACCAGCGACUAUGUCGUAGUGGGUAAAGCUCCCUCUUCGGAGGGAGCAUCAGAG
modifications: listed as RNA, further chemistry not given here
Q: B1 was tested. Which “increase in editing rate at the PCSK9 locus over scaffold 174” value (PCSK9 locus [1]) did it give?
A: ~ 10 percentage point

Q: What about the “editing potency at the B2M locus (indel rate by NGS)” value (human B2M locus; spacer 7.9 v1, each dose, compared with scaffold 174) of the same molecule?
A: higher editing potency at the B2M locus

Q: And the “editing level at the B2M locus compared with scaffold 174” value (human B2M locus; spacer 7.9 v1, highest dose of 250 ng)?
A: nearly two-fold higher

Q: What about the “editing potency at the B2M locus (loss of HLA surface presentation)” value (B2M locus [2]) of the same molecule?
A: higher editing potency at the B2M locus

Q: What about the cleavage rate (6.7/6.8 target dsDNA [3]; spacer 6.7) of the same molecule?
A: marginally faster cleavage

Q: What about the cleavage rate (6.7/6.8 target dsDNA [3]; spacer 6.8) of the same molecule?
A: nearly twice as quickly

Q: And the “active fraction higher than for scaffold 174” value (6.7/6.8 target dsDNA [4])?
A: 25-30%

Q: What about the “reduction of PCSK9 secretion” value (PCSK9 locus [5]) of the same molecule?
A: more effective reduction of PCSK9 secretion

B2: DOMAIN_26749: repressor domain, Ophiophagus hannah, SEQ ID NO 135 (protein)
chain: STPVTFEDVVVYFTAAEWVHLTNWQRDFYQAVMMETYELVASVAGDGVPMAEDEEGGVERPVWQYIPRGKRRRKTPQPRAD
modifications: Ophiophagus hannah
Q: For B2, which “B2M repression as second repressor domain in LTRP6 configuration” value (B2M locus [6]; 4 days post-transfection) is on record?
A: highest level of B2M repression at 4 days post-transfection

Q: And the “B2M repression (HLA-negative cells)” value (B2M locus [6]; gRNA scaffold 174 spacer 7.165, LTRP6 = ZIM3 first, named domain second repressor domain, day not stated in text (Tables 16-18, days 4-13))?
A: ~ 83.800%
